This is an account of results in US20190367620A1 (Merck KGaA, published 2019).

The term Kd denotes the equilibrium constant for the complex coming apart. Read a high Kd as weaker binding.

What all share (assay): SPR as in Example 1.8
Experiment [1] deals with T1, FGFR1 D2 point mutant V96A (human, UniProt P11362 22-254).
T1 chain: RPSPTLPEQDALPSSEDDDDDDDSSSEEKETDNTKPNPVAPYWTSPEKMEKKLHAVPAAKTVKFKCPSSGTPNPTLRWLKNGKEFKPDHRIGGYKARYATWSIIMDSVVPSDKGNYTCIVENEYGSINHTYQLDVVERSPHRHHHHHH
As for the experimental part: (§1) Binding affinities of anti-FGFR1 antibodies to FGFR1 were measured by Surface Plasmon Resonance (SPR) using a GE Healthcare BIAcore 4000 instrument as follows. Goat anti-human Fc antibody (Jackson ImmunoResearch Laboratories #109-005-098) was first immobilized on BIAcore carboxymethylated dextran CM5 chip using direct coupling to free amino groups following the procedure described by the manufacturer. Antibodies were then captured on the CM5 biosensor chip to achieve approximately 200 response units (RU). Binding measurements were performed using the running HBS-EP+ buffer. A 2-fold dilution series of His-tagged FGFR1 proteins were injected at a flow rate of 30 μl/min at 25° C. Association rates (kₒₙ, per mol/s) and dissociation rates (koff, per s) were calculated using a simple 1:1 Langmuir binding model (Biacore 4000 Evaluation Software). The equilibrium dissociation constant (KD, mol) was calculated as the ratio of koff/kₒₙ.
(§2) To obtain a finer, residue-level mapping of the epitope and to complement the HD exchange data, molecular modelling and manual inspection of the crystal structure of FGFR1 [(Beenken et al. 2012); PDB record 3OJV] was used to select solvent exposed residues within and around the epitope identified by HD exchange. The selected residues were mutated either to alanine (large to small) or to glycine if the selected residue was alanine. In total 35 point mutants were designed, expressed and purified in HEK cells, and tested for binding to mAb #A08 using surface plasmon resonance as described in Example 1.8. The affinity of the antibody for wild-type and each mutant was determined and used to calculate the contribution of each epitope residue to the binding energy.

Experiment [2] deals with T2, FGFR1 D2 point mutant K51A (human, UniProt P11362 22-254).
T2 chain: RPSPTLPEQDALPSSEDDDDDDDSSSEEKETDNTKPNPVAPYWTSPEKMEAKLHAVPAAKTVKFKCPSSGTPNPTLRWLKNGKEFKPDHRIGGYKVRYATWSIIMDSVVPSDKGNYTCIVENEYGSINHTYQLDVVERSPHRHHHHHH
The procedure: as §1, §2

The target in experiment [3] is T3, FGFR1 D2 point mutant H54A (human, UniProt P11362 22-254).
T3 chain: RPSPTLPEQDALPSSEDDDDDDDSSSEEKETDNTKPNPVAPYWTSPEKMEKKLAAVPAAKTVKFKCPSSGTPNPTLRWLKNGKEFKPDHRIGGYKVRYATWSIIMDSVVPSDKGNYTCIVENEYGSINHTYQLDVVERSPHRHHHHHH
The procedure:
as §1, §2

For experiment [4], the target named is T4, FGFR1 D2 point mutant G92A (human, UniProt P11362 22-254).
T4 chain: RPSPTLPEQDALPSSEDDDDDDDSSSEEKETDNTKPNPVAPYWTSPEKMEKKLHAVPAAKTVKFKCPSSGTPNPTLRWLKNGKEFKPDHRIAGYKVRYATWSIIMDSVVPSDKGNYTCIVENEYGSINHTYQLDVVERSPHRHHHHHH
As for the experimental part: as §1, §2

Experiment [5] has as its target T5, FGFR1 D2 point mutant I104A (human, UniProt P11362 22-254).
T5 chain: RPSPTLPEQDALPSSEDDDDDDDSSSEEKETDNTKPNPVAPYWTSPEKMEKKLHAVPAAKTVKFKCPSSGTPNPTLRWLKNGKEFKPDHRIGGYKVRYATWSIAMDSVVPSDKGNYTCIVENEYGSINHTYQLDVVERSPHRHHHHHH
As for the experimental part: as §1, §2

The target of another experiment is T6, Human FGFR1 D2-His6 (human, UniProt P11362 22-254).
T6 construct: also called D2 domain; F3FR1c-D2
T6 sequence: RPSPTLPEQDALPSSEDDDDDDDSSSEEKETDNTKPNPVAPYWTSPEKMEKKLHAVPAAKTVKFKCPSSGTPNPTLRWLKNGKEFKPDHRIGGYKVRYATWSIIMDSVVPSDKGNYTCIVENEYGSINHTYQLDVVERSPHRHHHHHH
As for the experimental part:
as §1, §2

The target in experiment [6] is T7, human FGFR1b-IIIc extracellular domain with a HIS tag (human, UniProt P11362 22-376).
T7 construct: also called huFGFR1b-IIIc; hFGFR1b-IIIc
T7 sequence: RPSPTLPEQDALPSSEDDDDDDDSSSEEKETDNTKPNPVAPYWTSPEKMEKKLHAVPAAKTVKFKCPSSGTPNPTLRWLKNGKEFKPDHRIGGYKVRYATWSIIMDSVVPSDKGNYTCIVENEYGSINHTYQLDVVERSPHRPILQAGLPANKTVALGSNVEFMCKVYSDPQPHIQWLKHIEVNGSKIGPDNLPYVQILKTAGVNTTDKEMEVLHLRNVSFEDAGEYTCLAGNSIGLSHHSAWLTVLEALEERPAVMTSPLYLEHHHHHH
As for the experimental part:
as §1, §2

For experiment [7], the target named is T8, FGFR1 D2 point mutant S102A (human, UniProt P11362 22-254).
T8 chain: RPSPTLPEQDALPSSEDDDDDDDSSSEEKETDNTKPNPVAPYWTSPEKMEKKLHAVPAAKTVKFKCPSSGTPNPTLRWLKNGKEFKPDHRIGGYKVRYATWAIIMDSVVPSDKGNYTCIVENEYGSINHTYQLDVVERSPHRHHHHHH
The procedure:
as §1, §2

The target of experiment [8] is T9, FGFR1 D2 point mutant Y94A (human, UniProt P11362 22-254).
T9 construct: Uncharacteristic melting curve
T9 chain: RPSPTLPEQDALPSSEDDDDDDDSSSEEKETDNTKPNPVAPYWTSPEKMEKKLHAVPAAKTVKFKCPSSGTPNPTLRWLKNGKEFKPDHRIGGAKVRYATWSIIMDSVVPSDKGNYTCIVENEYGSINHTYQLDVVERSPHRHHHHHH
The procedure:
as §1, §2

For experiment [9], the target named is T10, FGFR1 D2 point mutant P57A (human, UniProt P11362 22-254).
T10 chain: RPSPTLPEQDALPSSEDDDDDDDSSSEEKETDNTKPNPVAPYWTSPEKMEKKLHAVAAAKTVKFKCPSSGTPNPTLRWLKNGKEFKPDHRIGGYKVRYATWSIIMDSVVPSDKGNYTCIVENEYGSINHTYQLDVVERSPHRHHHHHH
The procedure:
as §1, §2

B1: mAb #A08 (antibody, V domains shown)
VH: EVQLQESGPGLVKPSGTLSLTCAVSGGSISSNNWWSWVRQPPGKGLEWIGEIYHSGSTSYNPSLKSRVTISVDKSKNQFSLKLNSVTAADTAVYYCARGTDWFDPWGQGTLVTVSS
VL: QAVLTQPPSVSVAPGQTARITCGGNNIGSESVHWYQQKPGQAPVLVVYDDSDRPSGIPERFSGSNSGNTATLTISRVEAGDEADYYCQVWDSTSDHRVFGGGTKLTVL
notes: Only variable domains are tied to the name mAb #A08 (hit); also called #A08 hit; mAb #08
Consider B1, for which the Kd in experiment [1] turned out to be 0.19 nM; in experiment [2], 0.31 nM; in experiment [3] it was 0.36 nM; in experiment [4], 0.28 nM; in experiment [5], 0.93 nM; with Human FGFR1 D2-His6, 0.19 nM. In addition, the Kd came out at 0.48 nM in experiment [6], 0.16 nM in experiment [7], 0.99 nM in experiment [8] and 0.41 nM in [9].
